In patent US20220033470A1:

Experiments:
[1] = target: human insulin receptor (human) (UniProt P06213); assay: Surface plasmon resonance (Biacore); human insulin receptor immobilized (0.0609 pmol/mm^2), sortilin injected at 50-500 nM, CaHBS buffer
[2] = target: murine insulin receptor (murine) (UniProt P15208); assay: Surface plasmon resonance (Biacore); murine insulin receptor (mIR) immobilized (0.0607 pmol/mm^2), sortilin injected at 50-500 nM, CaHBS buffer
[3] = target: murine insulin receptor (murine) (UniProt P15208); assay: SPR (Biacore), soluble sortilin 50-500 nM over immobilized murine insulin receptor
[4] = target: human insulin receptor (human) (UniProt P06213); assay: SPR (Biacore), soluble sortilin 50-500 nM over immobilized human insulin receptor

- Kd [1]: 46 nM
- Kd [2]: 42 nM
- Kd [3]: 40 nM
- Kd [4]: 40 nM
Substance: Soluble sortilin (from UniProt Q99523 78-755) (receptor)
